Data as given in patent publication US20060115475A1 (published 2006).
Blank lines part the entries; values can stand above or below the binder they belong to.

Tests used:
[1] = target: T1, soluble human TLR3 extracellular domain (human, UniProt O15455 24-703); test: ELISA, coated soluble hTLR3 extracellular domain, anti-mouse IgG-HRP
T1 construct: also called hTLR3 extracellular domain; extracellular domain of human TLR3

[2] = target: T2, Human hexa-histidine-TLR3 (human, UniProt O15455 24-703, limits assumed); test: Biacore 3000, hexa-histidine-TLR3 captured on anti-His antibody, mAb in solution, 25 C, 1:1 model
T2 construct: Captured by anti-His antibody on a CM5 chip; also called TLR3 (captured on the chip surface); not shown: hexa-histidine tag

[3] = target: T1, soluble human TLR3 extracellular domain; test: Biacore 2000, mAb captured on protein A, TLR3 in solution, 25 C, 1:1 model; mAb capture (mAb on protein A chip, TLR3 in solution)
Description: Measurement of binding affinity by Biacore was performed by mAb capture and TLR3 capture techniques. MAb capture analysis was performed at 25° C. using a Biacore 2000 biosensor equipped with a CM5 chip with surfaces modified with protein A (6,000 RU) at 25° C. by standard amine coupling. Antibody was diluted to 30 nM and captured for one minute on different protein A surfaces. TLR3 was injected at 0, 0.1, 0.3, 1.0, 3.0, and 9.0 nM and associations and dissociations were monitored for 5 minutes. The protein A modified surfaces were regenerated using two 6-second pulses 100 mM phosphoric acid. Available binding data sets were fit to a 1:1 interaction model (CLAMP™). The rate constants and their ratio (KD=kd/kₐ) and the error of fit carried over the estimate of the apparent equilibrium constants were calculated.

[4] = target: T1, soluble human TLR3 extracellular domain; test: ELISA, TLR3 binding assay
[5] = target: T1, soluble human TLR3 extracellular domain; test: ELISA, TLR3 binding assay as in Example 20

EC50 [1]: 8 ng/mL
Kd [2]: 0.316 nM
Kd [3]: 1.2 nM
B1: murine anti-hTLR3 antagonist mAb 1068 (antibody, mouse IgG1, V domains shown)
VH: QVQLQQPGAELVQPGTSVRLSCKASGYIFTTYWIHWVKQRPGQGLEWIGEINPNNGRINYNEKFKTKATLTVDKSSSTAYMQLSSLTSEDSAVYYCTRVGVMITTFPYWGQGTLVTVSA
VL: DIQMTQSPASLSASVGETVTITCRASGNIHNYLAWYQQKQGKSPQLLVYNAKTLADGVPSRFSGSESGTQYSLKINSLQPEDFGSYYCQHFWSTPFTFGSGTKLELK
notes: also called C1068; mAb C1068

EC50 [4]: > 1 µg/mL
EC50 [5]: 1.22 µg/mL
B2: human-adapted C1068 variant mAb HBV6 (Vκ CDR1 H30S in the HV1/LV1 background) (antibody, V domains shown)
VH: QVQLVQSGAEVKKPGASVKVSCKASGYTFTTYWIHWVRQAPGQRLEWMGEINPNNGRINYNEKFKTRVTITRDTSASTAYMELSSLRSEDTAVYYCARVGVMITTFPYWGQGTLVTVSS
VL: DIQMTQSPSSLSASVGDRVTITCRASGNISNYLAWYQQKPGKAPKLLIYNAKTLADGVPSRFSGSGSGTDFTLTISSLQPEDFATYYCQHFWSTPFTFGQGTKLEIK
notes: Made in the HV1/LV1 background; not shown: human kappa light chain constant region
